# Patent US20240325562A1 (LINXIS B V, published 2024)
# What was measured:
# [1] = target: T1, recombinant human extracellular domain of IGF2R (human, UniProt P11717 41-2304); experiment: direct binding assay of the fluorescent conjugate on immobilized hIGF2R-ECD, one-site specific binding fit
# T1 construct: extracellular domain; Recombinant, immobilized on plates; also called hIGF2R-ECD; human IGF2R ectodomain (ECD)
# Procedure: (§1) These conjugates were then subjected to direct binding assays on immobilized hIGF2R-ECD, meaning that plates were read out immediately after washing, without additional detection steps. […] For detailed analysis, binding parameters KD and Bₘₐₓ were calculated in Graphpad (version 8.3), using one-site specific binding analysis (FIG. 8D).
# [2] = target: T1, recombinant human extracellular domain …; experiment: binding assay on immobilized hIGF2R-ECD, detection with anti-VHH antibody
# Procedure: The 15 unique hIGF2R-binding VHH (Example 2.1, FIG. 2) were produced and purified as described in examples 3 and 4. The apparent affinities were determined through binding assay on immobilized hIGF2R-ECD. Briefly, three-fold serial dilution series, starting from 1 μM, of each VHH were plated onto hIGF2R-ECD coated plates. VHH were allowed to bind for two hours after which plates were washed. Then, bound VHH was detected using a VHH-specific IgG antibody, followed by an IRD800CW-conjugated IgG-specific antibody. Plates were read out by fluorimetry.
# [3] = target: T2, human IGF2R on cells (human, UniProt P11717 41-2491); experiment: cell-based or functional assay
# [4] = target: T3, rat IGF2R on cells (rat, UniProt A0A8I6GLL6 43-2479); experiment: cell-based or functional assay
# [5] = target: T3, rat IGF2R on cells; experiment: binding assay on SCC cells transgenically expressing rat IGF2R
# Procedure: (§2) To examine whether 13F11-13E8 is cross-reactive against rodent IGF2R, the construct as well as its corresponding monomeric VHHs were conjugated to IRDye800CW (F11E8-IRD800, conjugation method as described in example 10.2) and the binding affinity was determined using a binding assay on SCC cells that transgenically expressed either murine IGF2R (mIGF2R), rIGF2R, or hIGF2R (FIGS. 12A-D).
# [6] = target: T2, human IGF2R on cells; experiment: binding assay on SCC cells transgenically expressing human IGF2R
# Procedure: as §2
# [7] = target: T4, murine IGF2R on cells (murine, UniProt Q07113 36-2483); experiment: binding assay on SCC cells transgenically expressing murine IGF2R
# T4 construct: whole, on cells; also called mIGF2R
# Procedure: as §2
# [8] = target: T1, recombinant human extracellular domain …; experiment: direct binding assay of the Alexa Fluor 647 conjugate on hIGF2R-ECD, one-site specific binding fit
# Procedure: as §1
# Based on their high affinity and binding to non-overlapping receptor epitopes, VHHs 13F11 and 13E8 were selected for the design of biparatopic and bivalent VHH constructs. Two VHHs were fused with a flexible linker, consisting of three Gly-Gly-Gly-Gly-Ser repeats (FIG. 8A). The sequences were codon optimized for expression in E. coli and obtained as synthesized DNA fragments from GeneArt. The DNA fragments encoding VHHs were cloned into a vector pET28-based vector introducing a C-terminal free cysteine for site-directed conjugation and His6 tag for IMAC purification (FIG. 8A). The VHH constructs were produced and purified as described in example 4. […] In a similar binding assay, IR dye 800 (IRD800) conjugates were prepared (as outlined in example 10.2) of the monomeric VHHs 13F11 and 13E8, the biparatopic VHH construct 13F11-13E8, the reciprocal biparatopic construct 13E8-13F11, the bivalent VHH construct 13F11-13F11, and the non-binding (control-) VHH R2. Conjugated constructs were then subjected to binding assay as described above.
# [9] = target: T5, rat serum albumin (rat, UniProt P02770 25-608); experiment: binding assay of the IRDye800 conjugate on serum albumin
# T5 construct: also called RSA
# T5 sequence (P02770 25-608 limits assumed): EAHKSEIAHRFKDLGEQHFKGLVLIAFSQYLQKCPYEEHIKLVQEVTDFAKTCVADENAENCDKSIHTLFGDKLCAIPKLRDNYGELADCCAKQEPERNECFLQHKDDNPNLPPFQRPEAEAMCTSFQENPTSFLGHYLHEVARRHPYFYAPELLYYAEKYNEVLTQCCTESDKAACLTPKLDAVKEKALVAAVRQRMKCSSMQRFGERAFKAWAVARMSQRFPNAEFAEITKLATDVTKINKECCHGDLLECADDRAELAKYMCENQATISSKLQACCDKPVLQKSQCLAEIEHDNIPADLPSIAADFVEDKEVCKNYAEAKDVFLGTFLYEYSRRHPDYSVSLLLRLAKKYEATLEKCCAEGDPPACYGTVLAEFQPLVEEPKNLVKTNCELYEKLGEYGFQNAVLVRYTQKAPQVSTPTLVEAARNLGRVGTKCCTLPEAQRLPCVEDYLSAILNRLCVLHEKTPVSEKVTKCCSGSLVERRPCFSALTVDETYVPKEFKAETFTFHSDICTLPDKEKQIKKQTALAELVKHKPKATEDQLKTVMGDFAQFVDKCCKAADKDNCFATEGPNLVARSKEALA
# [10] = target: T6, mouse serum albumin (mouse, UniProt P07724 25-608); experiment: as above
# T6 construct: also called MSA
# T6 sequence (P07724 25-608 limits assumed): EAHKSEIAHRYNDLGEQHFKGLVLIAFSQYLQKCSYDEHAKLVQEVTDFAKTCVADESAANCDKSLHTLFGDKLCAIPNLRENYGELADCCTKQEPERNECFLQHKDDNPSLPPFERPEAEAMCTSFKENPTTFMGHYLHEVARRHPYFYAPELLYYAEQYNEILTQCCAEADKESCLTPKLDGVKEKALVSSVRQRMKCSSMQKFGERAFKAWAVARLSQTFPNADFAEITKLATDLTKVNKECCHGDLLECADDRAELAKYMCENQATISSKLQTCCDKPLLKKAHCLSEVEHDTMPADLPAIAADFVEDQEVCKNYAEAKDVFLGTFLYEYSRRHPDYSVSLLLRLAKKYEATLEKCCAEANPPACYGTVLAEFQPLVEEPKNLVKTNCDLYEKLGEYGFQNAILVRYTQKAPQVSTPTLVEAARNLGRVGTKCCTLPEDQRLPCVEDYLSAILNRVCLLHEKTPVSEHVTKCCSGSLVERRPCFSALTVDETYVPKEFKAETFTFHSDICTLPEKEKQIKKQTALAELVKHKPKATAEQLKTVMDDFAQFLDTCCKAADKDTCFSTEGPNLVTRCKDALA
# [11] = target: T7, human serum albumin (human, UniProt P02768 25-609); experiment: as above
# T7 construct: also called HSA
# [12] = target: T8, recombinant hPDGFRB ectodomain (human, UniProt P09619 33-532); experiment: competition ELISA on human PDGFRB ECD, IRDye800-SP26P as reporter and unconjugated SP26P as competitor
# T8 construct: extracellular domain; also called hPDGFRB-ECD; human PDGFRB ECD
# T8 sequence (P09619 33-532): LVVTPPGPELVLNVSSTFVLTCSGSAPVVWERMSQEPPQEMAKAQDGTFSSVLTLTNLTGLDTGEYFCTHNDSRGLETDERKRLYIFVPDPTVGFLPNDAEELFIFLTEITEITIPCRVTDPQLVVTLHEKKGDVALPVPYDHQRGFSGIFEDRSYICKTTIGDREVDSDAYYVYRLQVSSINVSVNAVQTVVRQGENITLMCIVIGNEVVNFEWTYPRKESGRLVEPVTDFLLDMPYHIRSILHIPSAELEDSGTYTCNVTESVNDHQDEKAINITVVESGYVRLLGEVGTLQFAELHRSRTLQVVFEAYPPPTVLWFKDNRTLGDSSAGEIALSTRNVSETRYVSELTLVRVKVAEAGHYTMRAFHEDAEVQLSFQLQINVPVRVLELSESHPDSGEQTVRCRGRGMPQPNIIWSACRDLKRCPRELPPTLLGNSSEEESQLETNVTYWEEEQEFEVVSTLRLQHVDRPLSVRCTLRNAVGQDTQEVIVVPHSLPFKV
# [13] = target: T1, recombinant human extracellular domain …; experiment: competition assay on immobilized hIGF2R-ECD, competitor for 13F11-A647
# Procedure: Biparatopic VHH constructs contain two VHH which bind to a different epitope, i.e. which are non-competitive binders. To identify (a) pair(s) of non-competitive binders, competition assays were performed. In the example shown, an Alexa fluor-conjugate of the high affine VHH 13F11 was used as the reporter VHH (13F11-A647, see example 10.2). In the assay, a non-saturating amount (10 nM) of 13F11-A647 was incubated with immobilized hIGF2R-ECD in the presence or absence of 250 nM unconjugated competitor VHH to allow competition to take place.
# [14] = target: T9, full-length human PDGFRB on cells (human, UniProt P09619 33-1106); experiment: binding assay on cells transgenically expressing human PDGFRB, FIG. 15C
# T9 construct: whole, on cells; also called hPDGFRB; SCC-hPDGFRB
# T9 sequence (P09619 33-1106): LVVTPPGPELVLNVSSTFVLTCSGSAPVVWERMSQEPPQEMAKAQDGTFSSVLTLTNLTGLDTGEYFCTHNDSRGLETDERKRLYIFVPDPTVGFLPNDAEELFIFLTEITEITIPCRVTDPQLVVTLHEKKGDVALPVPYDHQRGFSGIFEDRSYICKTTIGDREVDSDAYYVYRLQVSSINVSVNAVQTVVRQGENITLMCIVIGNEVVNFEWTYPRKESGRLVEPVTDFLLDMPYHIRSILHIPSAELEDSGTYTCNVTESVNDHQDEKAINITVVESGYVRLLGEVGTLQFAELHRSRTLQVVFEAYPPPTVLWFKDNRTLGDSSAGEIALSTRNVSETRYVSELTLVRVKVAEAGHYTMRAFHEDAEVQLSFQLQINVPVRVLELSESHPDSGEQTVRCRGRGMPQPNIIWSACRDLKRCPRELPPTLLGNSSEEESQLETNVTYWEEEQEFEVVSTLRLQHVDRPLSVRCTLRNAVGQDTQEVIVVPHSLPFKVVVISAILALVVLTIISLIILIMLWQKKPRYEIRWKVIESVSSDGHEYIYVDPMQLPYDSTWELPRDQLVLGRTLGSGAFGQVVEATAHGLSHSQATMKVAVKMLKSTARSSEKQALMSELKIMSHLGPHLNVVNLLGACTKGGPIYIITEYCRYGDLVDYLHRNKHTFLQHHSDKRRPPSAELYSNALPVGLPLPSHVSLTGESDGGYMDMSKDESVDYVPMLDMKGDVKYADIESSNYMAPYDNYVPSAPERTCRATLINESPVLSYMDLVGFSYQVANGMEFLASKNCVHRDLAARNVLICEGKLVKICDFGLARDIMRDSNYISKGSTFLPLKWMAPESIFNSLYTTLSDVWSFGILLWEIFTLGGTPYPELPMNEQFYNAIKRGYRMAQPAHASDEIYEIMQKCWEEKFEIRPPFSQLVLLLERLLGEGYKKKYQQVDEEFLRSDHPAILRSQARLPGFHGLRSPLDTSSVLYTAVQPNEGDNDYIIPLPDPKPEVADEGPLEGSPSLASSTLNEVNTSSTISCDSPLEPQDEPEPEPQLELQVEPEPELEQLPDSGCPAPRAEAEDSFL
binder,measurement,setting,value
"13F11-A647 (VHH, Alexa Fluor 647 is coupled by maleimide chemistry to the C-terminal free cysteine of the expression tail. The dye, that cysteine and the tag are not in the letters., Fluorescent conjugate of monomeric 13F11; also called labelled 13F11) VHH: EVQLVESGGRLVQPGDSLRLSCAASGRTFSDNAMGWFRQAPGKERRFVAGISWAGGSTYYSDSVKGRFTISRDNAKNTVYLQMNSLKPEDTAVYYCAAGLRAWVQRMPKDYNYWGQGTQVTVSS",Kd,[1],1 nM
"13F11 (VHH, On phage in the phage ELISA; purified from E. coli in the other assays; also called native 13F11; unconjugated 13F11) VHH: EVQLVESGGRLVQPGDSLRLSCAASGRTFSDNAMGWFRQAPGKERRFVAGISWAGGSTYYSDSVKGRFTISRDNAKNTVYLQMNSLKPEDTAVYYCAAGLRAWVQRMPKDYNYWGQGTQVTVSS",Kd,[2],0.23 nM
"13F11-13E8-IRD800 (bispecific antibody, IRDye 800CW coupled by maleimide to the C-terminal free cysteine, which is not in the letters, Biparatopic tandem VHH; also called F11E8-IRD800; IRDye800-conjugated 13F11-13E8 (F11E8); not shown: C-terminal tail: free Cys, possible thrombin site and His6 tag) EVQLVESGGRLVQPGDSLRLSCAASGRTFSDNAMGWFRQAPGKERRFVAGISWAGGSTYYSDSVKGRFTISRDNAKNTVYLQMNSLKPEDTAVYYCAAGLRAWVQRMPKDYNYWGQGTQVTVSSGGGGSGGGGSGGGGSEVQLVESGGGLVQAGGSLRLSCAASRSISPMGWYRQAPGKQRELVAIMPSSGPPIYADSVQGRFTISRDNAKNTVYLQMNSLKPEDTAVYYCNVGGGYWGQGTQVTVSS","endocytic rate constant, ke",[3],~1.5 min⁻¹
same,"endocytic rate constant, ke",[4],~0.7 min⁻¹
same,Kd,[5],< 10 nM
same,Kd,[6],< 10 nM
same,Kd,[7],< 10 nM
"13F11-13E8-A647 (bispecific antibody, Alexa Fluor 647 coupled by maleimide to the C-terminal free cysteine, which is not in the letters, Biparatopic tandem VHH; not shown: C-terminal tail: free Cys, possible thrombin site and His6 tag) EVQLVESGGRLVQPGDSLRLSCAASGRTFSDNAMGWFRQAPGKERRFVAGISWAGGSTYYSDSVKGRFTISRDNAKNTVYLQMNSLKPEDTAVYYCAAGLRAWVQRMPKDYNYWGQGTQVTVSSGGGGSGGGGSGGGGSEVQLVESGGGLVQAGGSLRLSCAASRSISPMGWYRQAPGKQRELVAIMPSSGPPIYADSVQGRFTISRDNAKNTVYLQMNSLKPEDTAVYYCNVGGGYWGQGTQVTVSS",Kd,[8],2.5 nM
13F11-13E8-ABD-IRD800 (other) EVQLVESGGRLVQPGDSLRLSCAASGRTFSDNAMGWFRQAPGKERRFVAGISWAGGSTYYSDSVKGRFTISRDNAKNTVYLQMNSLKPEDTAVYYCAAGLRAWVQRMPKDYNYWGQGTQVTVSSGGGGSGGGGSGGGGSEVQLVESGGGLVQAGGSLRLSCAASRSISPMGWYRQAPGKQRELVAIMPSSGPPIYADSVQGRFTISRDNAKNTVYLQMNSLKPEDTAVYYCNVGGGYWGQGTQVTVSSLAEAKVLANRELDKYGVSDYYKNLINNAKTVEGVKALIDEILAALP,Kd,[9],30 nM
same,Kd,[10],~200 nM
same,Kd,[11],~200 nM
"SP26P (VHH, In the competition assay the reporter copy carried IRDye800 on the C-terminal cysteine, which is not in the letters., From libraries 3 and 4 (raised against rPDGFRB)) VHH: EVQLVESGGGLVQAGGSLRLSCAASGRSFSSSVMGWFRQTPGKEREFVAATRWTAASTHYADSVKGRFTISRDHAENAVFLQMNSLKPEDTAVYYCAAGNYLDTAQYRYNYWGQGTQVTVSS",binding result,[12],binds
"13G10 (VHH, On phage in the phage ELISA; purified from E. coli in the other assays) VHH: EVQLVESGGGLVQAGGSLRLSCAASGLTFSSYTMAWYRQAPGKEREVVAAISSGDSIYHEDSVQGRFIISRDNAKNTVYLQMNSLKAEDTAVYYCRANGPGTYWGQGTQVTVSS",binding result,[13],binds
"13C11 (VHH, On phage in the phage ELISA; purified from E. coli in the other assays) VHH: EVQLVESGGGLVQAGGSLRLSCAASGLTFSSYTMAWYRQAPGKEREVVAAISSGDSIYHEGSVQGRFIISRDNAKNTVYLQMNSLKAEDTAVYYCRANGPGTYWGQGTQVTVSS",binding result,[13],binds
"SP02P-SP26P (bispecific antibody, not shown: small tags and cut ends, also called SP02-SP26P) EVQLVESGGGLVQAGGSLRLSCAASESISSIEQMGWFRQAPGKQRALVAINTYGGRTVYTNSVEGRFTMSRDSAKNMVYLQMTSLEPEDTAVYYCYAQTTAWRGGVWGQGTQVTVSSGGGGSGGGGSGGGGSEVQLVESGGGLVQAGGSLRLSCAASGRSFSSSVMGWFRQTPGKEREFVAATRWTAASTHYADSVKGRFTISRDHAENAVFLQMNSLKPEDTAVYYCAAGNYLDTAQYRYNYWGQGTQVTVSS",Kd,[14],< 5 nM
"13E8-13F11-IRD800 (bispecific antibody, not shown: small tags and cut ends, IRDye 800CW coupled by maleimide to the C-terminal free cysteine, which is not in the letters) EVQLVESGGGLVQAGGSLRLSCAASRSISPMGWYRQAPGKQRELVAIMPSSGPPIYADSVQGRFTISRDNAKNTVYLQMNSLKPEDTAVYYCNVGGGYWGQGTQVTVSSGGGGSGGGGSGGGGSEVQLVESGGRLVQPGDSLRLSCAASGRTFSDNAMGWFRQAPGKERRFVAGISWAGGSTYYSDSVKGRFTISRDNAKNTVYLQMNSLKPEDTAVYYCAAGLRAWVQRMPKDYNYWGQGTQVTVSS","endocytic rate constant, ke",[3],~1.5 min⁻¹
same,"endocytic rate constant, ke",[4],~0.7 min⁻¹
"13E8-13F11-A647 (bispecific antibody, Alexa Fluor 647 coupled by maleimide to the C-terminal free cysteine, which is not in the letters, Biparatopic tandem VHH, reciprocal order; not shown: C-terminal tail: free Cys, possible thrombin site and His6 tag) EVQLVESGGGLVQAGGSLRLSCAASRSISPMGWYRQAPGKQRELVAIMPSSGPPIYADSVQGRFTISRDNAKNTVYLQMNSLKPEDTAVYYCNVGGGYWGQGTQVTVSSGGGGSGGGGSGGGGSEVQLVESGGRLVQPGDSLRLSCAASGRTFSDNAMGWFRQAPGKERRFVAGISWAGGSTYYSDSVKGRFTISRDNAKNTVYLQMNSLKPEDTAVYYCAAGLRAWVQRMPKDYNYWGQGTQVTVSS",Kd,[8],2.5 nM
